Assay results from publication PMC8786823, “Flanking sequences influence the activity of TET1 and TET2 methylcytosine dioxygenases and affect genomic 5hmC patterns”.

Molecular target: T1, UHRF2 SRA domain (human, UniProt Q96PU4 419-648)
T1 sequence: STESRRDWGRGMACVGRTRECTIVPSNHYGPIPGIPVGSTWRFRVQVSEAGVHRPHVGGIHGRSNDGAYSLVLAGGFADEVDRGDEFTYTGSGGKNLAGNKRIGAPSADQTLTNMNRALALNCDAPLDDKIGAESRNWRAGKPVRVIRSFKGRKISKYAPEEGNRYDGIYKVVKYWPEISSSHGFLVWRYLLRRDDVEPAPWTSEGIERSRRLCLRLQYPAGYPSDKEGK
Assay: EMSA; 0.5 uM DNA; preferred over mC and unmodified DNA in the same context; 20 mM HEPES pH 7.9, 100 mM NaCl, 2 mM MgCl2, 2 mM DTT, 0.1% NP-40, 5% glycerol; 30 min on ice; 6% PAGE in 0.25X TBE, GelRed stain
Conditions: protein: recombinant; tags: His; blunt

B1: TET-disf-hmC/TET-disf-rev (dsDNA)
DNA 1: GAAGCTGGGACGCGCGCCGGGAGAGTGCAA
DNA 2: TTGCACTCTCCCGGCGCGCGTCCCAGCTTC
modifications: 5hmC at position 15 of strand 1 (hemihydroxymethylated CpG)
- binding result: binds
